Patent publication US20220235128A1

Biological target: claudin 18.2 (isoform 2 subtype of CLDN18) (UniProt P56856)
Assay: FACS, 5 ug/ml antibody on dissociated GA0006 gastric cancer PDX tumor cells, PE anti-human IgG Fc

Molecule | Ratio of antibody-bound cells [%]
IMAB362 (Claudiximab) (antibody) | 85.6
QP207208 (antibody, V domains shown) VH: EVQLQQSGPELVKPGASVKMSCKASGYTFTSYIMHWVKQKPGQGLEWIGYINPYNDGTKYNEKFKGKATLTSDKSSSTVYMELSSLTSEDSAVYCCARLGFTTRNAMDYWGQGTSVTVSS VL: DIVMTQSPSSLSVSAGEKVTMNCKSSQSLLNSGNQKNYLAWYQQKPGQPPKLLIYGASTRESGVPDRFTGSGSGTDFTLTISSVQAEDLAVYYCQNDHSYPFTFGSGTKLEIK | 91.7
QP192193 (antibody, V domains shown) VH: QVQLQQSGAELVRPGSSVKISCKASGYAFSSYWMNWVKQRPGQGLEWIGQIYPGNGDTTYNGKFKGQATLTADKSSSTVYMQLSSLTSEDSAVYFCARFVKGNAMDYWGQGTSVTVSS VL: DIVMTQSPSSLTVTAGEKVTMSCKSSQSLLNSGNQKNYLTWYQQNPGQPPKMLIYWASTRESGVPDRFTGSGSGIDFSLTISSVQAEDLALYYCQNAYSYPFTFGSGTKLEIK | 92.4

The remaining lines, values ahead:

Ratio of antibody-bound cells [%] | Molecule
91.5 | QP190191 (antibody, V domains shown) VH: EVKLVESGGGLVKPGGSLKLSCAASGFTFSNYAMSWVRQTPEKRLEWVASIISGGRTYYLDSEKGRFTISRDNARNNLYLQMSSLRSEDTAMYYCTRIYYGNSFDYWGQGTTLTVSS VL: DIVMTQSPSSQTVTAGEKVTMSCKSSQSLLNSGNQKNYLTWYQQKPGQPPKLLIYWASTRESGVPDRFTGSGSGTDFTLTISNMQAEDLAVYYCQNDYSYPFTFGSGTKLEIK
90 | QP201202 (antibody, V domains shown) VH: EVQLQQSGPELVKPGASVKMSCKASGYTFTNYFVHWVKQKPGQGLEWIGYINPYNDDTKYNEKFKGKATLTSDKSSSTAYMDLSSLTSEDSAVYYCLSLRFFAYWGQGTLVTVSA VL: DIVMTQSPSSLTVTAGEKVTMSCKSSQSLLNSGNQKNYLTWYQQKPGQAPKLLIYWASTRESGVPDRFIGSGSGTDFTLTISHVQAEDLAVYFCQNDYSYPLTFGAGTNLELK
